Data taken from US6451976B1, “Bi-or multifunctional molecules based on a dendroaspin scaffold” (Trigen Limited, priority 1997, dated 2002).

Assays:
thrombin = thrombin (Homo sapiens, UniProt P00734); assay: Thrombin-induced fibrinogen clotting time; type: biochemical; conditions: summary of FIG. 3D
Method: Thrombin-induced fibrinogen clotting time: Thrombin-induced fibrinogen clotting time was determined using an Amelung KC-10 instrument as follows. 50 μl of thrombin (3.3 μg/ml) in 50 mM Tris-HCL, pH7.5, containing 150 mM NaCl and 5 mM CaCl2 was mixed with 10 μl of various concentrations of both modified (Den-TM) and wild type dendroaspin (as a control for comparison). After a 2 min incubation at 37° C., 100 μl of fibrinogen (160 μg/ml) in the same buffer was added to determine the clotting time.
Amidolytic activity of thrombin and clotting of fibrinogen: The amidolytic activity of α-thrombin was performed using the chromogenic substrate S-2238 (Chromogenix) and α-thrombin at a final concentration of 0.06 unit/ml. Thrombin releases p-nitroaniline from the substrate and the rate of this reaction was monitored in microtiter plates at 405 nm using an automated spectrophotometer (Autoreader III, Ortho Diagnostic Systems). The inhibitory effect of Den-HR on thrombin cleavage of the chromogenic substrate was measured at final concentration between nM-mM. […] The time to observe the start of fibrinogen clotting (thrombin time) was measured using an automated coagulometer at 37° C. The effect of mutants on fibrinogen clotting by α-thrombin was determined by substituting the HEPES buffer in the first mixture with mutants at a range of concentrations.

platelets = assay: ADP-induced platelet aggregation (RGD function); type: cell-based, human; conditions: summary of FIG. 3D
Method: (§1) Platelet aggregation: Platelet aggregation was measured by the increase in light transmission as described in Lu et al (1994) Biochem J 304: 929-936 and used to identify RGD function. Briefly, platelet rich plasma (PRP) was prepared from citrated human blood from healthy individuals by centrifugation at 200 g for 15 min. Platelets were prepared from PRP by centrifugation at 1200 g for 15 min. The pellets were washed and resuspended in adhesion/aggregation buffer (145 mM NaCl, 5 mM Kcl, 1 mM MgCl2, 2 mM CaCl2, 10 mM glucose, 3.5 mg/ml BSA and 10 mM HEPES, pH 7.35) and adjusted to a count of 3×10^8/ml. Platelet aggregation (320 μl incubations) was induced with 10 μM ADP in the presence of 1.67 mg/ml fibrinogen and measured using a Payton Dual-Aggregometer linked to a chart recorder.

washed platelets = assay: Thrombin-induced platelet aggregation; type: cell-based, human; conditions: summary of FIG. 3D
Method: as §1
Thrombin-induced platelet aggregation: Thrombin-induced platelet aggregation in washed platelets for both wild-type and mutant dendroaspins were determined as described in Example 3 above, except thrombin was used as an agonist.

[1] = test system: binding of platelets to immobilized fibronectin; conditions: Lu X et al (1994); cited from earlier work
[2] = test system: platelet adhesion to fibrinogen; conditions: Lu X et al (1994); cited from earlier work

SEQ ID NO:46: dendroaspin carrying the thrombomodulin-binding sequence of the B-chain of human thrombin; bifunctional molecule (RICFTPRGDMPGPYPGPCQEDSCYKNIWTFDNIIRRGPGPTWTANVGKGQPS)
thrombin clotting time (thrombin): delay
inhibition of ADP-induced platelet aggregation (platelets): inhibits
inhibition of thrombin-induced platelet aggregation (washed platelets): inhibits

kistrin
inhibition of binding of platelets to immobilized fibronectin [1]: poor antagonists
inhibition of platelet adhesion to fibrinogen [2]: potent inhibitors

B1: SEQ ID NO:43: modified dendroaspin with hirudin domain grafted into loops I and II (protein)
chain: RICFTPRGDMPGPYPGPCQEDSCYKNIWTFDNIIRRGCGCFTPRGDMPGPYFPRPQSHNDGDFEEIPEEYLQ
thrombin clotting time (thrombin): delays
inhibition of ADP-induced platelet aggregation (platelets): inhibits
inhibition of thrombin-induced platelet aggregation (washed platelets): inhibits
